Consider four molecules from article PMC9106292 (Science Advances, 2022).

The data set “cryo-EM structure” concerns the molecule itself. Description: cryo-EM structure.
Data set [1] addresses ASC-mCherry (full-length human ASC, TEV protease cleavage site, mCherry, C-terminal hexa-histidine tag) (human, UniProt Q9ULZ3 1-195). Kind of data set: negative-stain EM.
The data set “negative-stain EM” deals with the molecule itself. Kind of data set: negative-stain EM.

Chain of ASC-mCherry (full-length human ASC, TEV protease cleavage site, mCherry, C-terminal hexa-histidine tag) (Q9ULZ3 whole entry): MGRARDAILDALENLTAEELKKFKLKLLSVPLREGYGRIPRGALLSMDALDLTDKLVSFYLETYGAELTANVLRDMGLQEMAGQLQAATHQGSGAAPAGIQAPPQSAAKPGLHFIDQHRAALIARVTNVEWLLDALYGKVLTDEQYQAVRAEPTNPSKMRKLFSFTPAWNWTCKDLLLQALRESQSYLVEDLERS

B1: human NLRP3^PYD (residues 3 to 110; C108S) (domain or fragment)
chain: MASTRCKLARYLEDLEDVDLKKFKMHLEDYPPQKGCIPLPRGQTEKADHVDLATLMIDFNGEEKAWAMAVWIFAAINRRDLYEKAKRDEPKWGSDNARVSNPTVISQE
For B1, the binding result (in the data set “cryo-EM structure”; in data set [1]) was “binds” each time.

B2: NLRP3^PYD (residues 3 to 110; C108S) CAPS mutant D21H (domain or fragment)
chain: MASTRCKLARYLEDLEDVHLKKFKMHLEDYPPQKGCIPLPRGQTEKADHVDLATLMIDFNGEEKAWAMAVWIFAAINRRDLYEKAKRDEPKWGSDNARVSNPTVISQE
With B2, the binding result in the data set “negative-stain EM” is reported as “binds”.

B3: NLRP3^PYD (residues 3 to 110; C108S) CAPS mutant A77V (domain or fragment)
chain: MASTRCKLARYLEDLEDVDLKKFKMHLEDYPPQKGCIPLPRGQTEKADHVDLATLMIDFNGEEKAWAMAVWIFAVINRRDLYEKAKRDEPKWGSDNARVSNPTVISQE
Regarding B3, the binding result in the data set “negative-stain EM” is reported as “binds”.

B4: NLRP3^PYD (residues 3 to 110; C108S) CAPS mutant H51R (domain or fragment)
chain: MASTRCKLARYLEDLEDVDLKKFKMHLEDYPPQKGCIPLPRGQTEKADRVDLATLMIDFNGEEKAWAMAVWIFAAINRRDLYEKAKRDEPKWGSDNARVSNPTVISQE
As to B4, the binding result in the data set “negative-stain EM” is “binds”.
